Measured values reported in the RNAGym collection of RNA variant scans (doi:10.1073/pnas.2313332121).

B1: TPR t1 (parent)
chain: GACCAAUCUGCCCUCAGAGCUCGAGAACAUCUUCGGAUGCAGAGGAGGCAGGCUUCGGUGGCGCGAUAGCGCCAACGUCCUCAACCUCCAAUGCAUCCCACCACAUGAUGAUGCCUGAAGAGCCUUGGUUUUUUG

Variants of: B1
Assay: polymerase ribozyme fitness, log enrichment relative to wild type (log ratio); higher = more active; in vitro selection for triplet polymerase activity
How it was run: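 After PCR construction and transcription, each subunit's mutant library from a heterodimeric triplet polymerase ribozyme was annealed with a biotinylated primer, the partner subunit and triplets. Incubation was frozen, at −7 °C, and extended constructs were gel-excised, bound to streptavidin beads and amplified by RT-PCR, in one selection round done in triplicate. Fitness is the logarithm of a genotype's enrichment divided by that of the wild type, from inverse-variance-weighted replicate averages of Illumina-sequenced inputs and outputs. The base of the logarithm is 2, and genotypes needed ≥10 input reads and ≥1 read per output.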

Row | Variant | polymerase ribozyme fitness (log ratio)
1 | G10U C13G G120C | 1.66
2 | G10U C40A C76G A83U C101A | -3.85
3 | G10C U96G C97U G120C G135U | -5.98
4 | C11A A84G | -2.26
5 | G10C A24G A46C C86G | -3.81
6 | C11A C20U | -1.95
7 | G10U A41C A91U G120C U129C | -1.99
8 | G10U C82A U92G U116C A119U | -5.07
9 | G10A U87A C115G C123G | -1.54
10 | G10C G39A C76U A84U U87A | -2.28
11 | G10U C72A C124G | 1
12 | G10C U106C G127A G135U | -3.46
13 | G10U U14A C40A | -2.63
14 | G10U C80U | -0.415
15 | G10U C72G A91G | -1.95
16 | G10C G60U A118G | -1.45
17 | G10U C115G | -1.99
18 | G10U C115A | -0.281
19 | G10A U131A | -0.339
20 | G10U A18G A37U C40U U112A U126C | -1.57
21 | G10U C12U A43U A118U | -0.927
22 | G10C A27G A43U G110U | -5.07
23 | G10U G51C | -3.01
24 | G10U G51A | -2.56

Row | Variant | polymerase ribozyme fitness (log ratio)
25 | G10C G35A U59C U112A | -5.77
26 | C11A C28U G36A U81A C85U G120A | -4.25
27 | G10U C82U | -0.583
28 | G10U A41C G48U G113C | -3.37
29 | G10U C20U U32A U125G | -4.96
30 | G10C G60U C82A U96A G107U A119U | -6.51
31 | C11A C13G C72U C88G G113A | -5.81
32 | G10C G48A C64U G117U U125G | -6.03
33 | G10C U54C G93C C102A | -5.34
34 | G10C G128C | -3.1
35 | G10U C12A C56A C72A C82A | -1.27
36 | G10U G42A G45A G77C U78G U96C G128A U131G | -3.17
37 | G10U G42U C89U | -1.96
38 | G10U G61C | -1.82
39 | G10U C11A G36U U78G C115G | -5.09
40 | G10C A66G A83U | -1.48
41 | G10U C62U A111C G117C | -5.6
42 | G10U G19A G36C C79U | -3.73
43 | G10U C34A G69U G122A | 0.552
44 | G10U C34G G65U A66C C123U U125A G128U | -7.34
45 | G10U U54A | -1.28
46 | C11A C13U C53G A90C A91G | -3.8
47 | G10U C22A C72U U92G A105U A118G | -7.38
48 | G10U A37U C102G C115A | -6.5

Row | Variant | polymerase ribozyme fitness (log ratio)
49 | G10U G58U U78C G122A C124U | 0.946
50 | C11A C22G G48A C72G A119G | -4.64
51 | G10U A103U | -4.38
52 | G10U C40A G77A G128U | -3.6
53 | G10U U32C C56A C64A | -6.8
54 | G10U C89A G117U | -4.64
55 | G10U A27U U109A | -4.99
56 | G10U A46C C70G C94U U133A G135U | -4.06
57 | G10U G48U G63A C85U C86G | -3.3
58 | G10C A66C C79U | -2.72
59 | C11A C13U G63C A83U | -1.91
60 | G10C A37C | -1.41
61 | G10C A26G C62G | -4.17
62 | C11A A24C G122A C123G | -5.76
63 | G10C C40G C56G G61A A68U G77U U112C | -6.74
64 | G10C U38G C85U G122A C123G | 0.725
65 | G10U G17A C56G C62U C79U | -4.53
66 | G10C A16U C115A | -2.52
67 | G10U A46U C82G G127U | -3.03
68 | G10U A29U C70G G113A | -4.17
69 | C11A A50G U81A | -2.23
70 | G10U C28U G63A | -4.31
71 | G10U G128U U132C | -0.604
72 | G10C C34U A43U C101G G107C | -7.66

Row | Variant | polymerase ribozyme fitness (log ratio)
73 | G10U C20A G42A G93U C115U | -3.5
74 | G10C G71U | -1.91
75 | G10C A37U A84G C85A C94U C101G | -4.54
76 | G10C U32C C114U | -0.699
77 | G10U G47C C104U | -1.69
78 | G10U C40G U96G | -4.29
79 | C11A A91C | -2.43
80 | C11A A50U | -2.48
81 | G10C A75U C98A U109A G127C | -5.13
82 | G10C C40G C56G G77U U112C | -0.0532
83 | G10U U92A A111G | -4.02
84 | G10C G42C C123A G128A | -2.91
85 | G10C C73G C80U | -3.34
86 | G10C A18C C62U U133A | -3.86
87 | G10U C20A A66G | -4.29
88 | G10U U32G C102U C124U U126G | -7.39
89 | C11A A16U C40U C56A | -4.65
90 | C11A A16G G23U G39C C76U A95C G113U C114G | -7.17
91 | G10U A27G | -0.702
92 | G10A U106C | -0.101
93 | G10A U106A | 0.457
94 | G10C C49A G51C G57C C72U | -4.25
95 | G10C G52C G77U A121U | 0.617
96 | G10U C22G G60C C88A | -4.88

Row | Variant | polymerase ribozyme fitness (log ratio)
97 | G10U G51C U106C | -3.5
98 | G10C C70U | -1.63
99 | C11A C22A C56G U78A U112A U131A | -2.4
100 | G10U A26C A74G A90U G120A | -5.63
101 | G10C C85A | -0.827
102 | C11A C13G C31U A46U U109G | -7.98
103 | G10U C56G A111C | -0.962
104 | G10U C124U | 1.37
105 | G10A U87G G110U | -1.12
106 | G10C C20A A29C G58U G60A C85U | -6.83
107 | G10U C12G G17U G113A U126G | -4.16
108 | G10U A43C C76U A90C C115A | -2.83
109 | C11A A95U U96A C101G U106C C124A | -3.67
110 | G10C A68G | -4.75
111 | G10U G120U | 1.99
112 | C11A A119U | -1.67
113 | G10U G42A G61C | -5.15
114 | G10C G57A C88U U112G | -3.48
115 | G10U G71U C94A | -1.09
116 | G10U G36A | -0.638
117 | G10U C13A A41C G71A C85U | -3.61
118 | G10U G45U | -0.583
119 | G10C G57C | -0.669
120 | G10U G45A U78A A100U | -1.09

Row | Variant | polymerase ribozyme fitness (log ratio)
121 | G10C G71U C86U | -1.57
122 | G10C A41U A50G | -1.93
123 | C11A C12G A27U G63U G77A | -5.74
124 | G10C C13G G35A G61A C114U | -5.47
125 | G10C C11U C94G | -0.146
126 | G10C U87C | -1.18
127 | G10U C40G G48U C102U | -3.36
128 | G10U G44U C53U U96A U109C | -7.37
129 | G10U C64U G113C | -1.87
130 | C11A C12U U38A G69C | -2.89
131 | G10C C40U G45U | -1.47
132 | G10C C34A C124A | -3.03
133 | C11A C12U A37G C73U U78A U131A | -0.943
134 | G10U G17U G45U C104U C124A | -1.08
135 | G10U A16U C72U C79A C114G C123A U130G | -6.07
136 | G10U G23A U30G U32A G35U G51A C70G | -6.22
137 | G10U G39U | -0.472
138 | C11A C13A C40U | -3.65
139 | G10C G63A C80U | -3.07
140 | G10C U32C G113U | -3.81
141 | G10U G93A | -0.609
142 | G10C C34U | -5.43
143 | G10C G52U G58C A84U | -2.42
144 | G10U C56A C73G | -2.43

Row | Variant | polymerase ribozyme fitness (log ratio)
145 | G10U C40G G44C A111C | -4.09
146 | G10C C49A G71U | -1.17
147 | G10C C20A U54A C64U C88G A118U | -2.75
148 | G10U U30C | -2.43
149 | G10C G39C C49G A111U | -4.94
150 | G10U C11G G52U U109C C114U | -5.43
151 | G10U C56G A68G | -4.36
152 | C11A C13U G63U | -2.94
153 | G10U C34A G47A | -3.85
154 | G10U C13A G48U C94U U132A | -0.329
155 | G10C C11G C20U A43U C72U | -2.23
156 | G10A U116C | -0.237
157 | G10U C22U C98U | -5.53
158 | G10C G117A | -1.75
159 | G10C A18U C73G G113C | -5.21
160 | G10U A50U G63A | -3.1
161 | G10U C15G U21A A90G G93U G120C G135U | -3.07
162 | C11A C31G G47A U92C G120A U131A | -5.58
163 | G10C U109A | -6.66
164 | G10U C15A G61U A75C G117A | -3.07
165 | G10C A24U C53A G63C G117C G128A | -5.7
166 | G10U U92C | -0.873
167 | G10U U92G | -3.71
